Test results as given in publication PMC8770708.
Several values for one entry are separate records, joined by “and”; a condition that tells them apart may be missing. Equal values may be shown once.

Tests used:
[1] = target: TraB with a C-terminal double twin-Strep tag (TraB_(Strep4)), VirB10-like subunit of the pED208-encoded T4SS (IncFV plasmid pED208 (carried in E. coli)); assay: cryo-EM structure; OMCC purified in the same way from E. coli BL21(DE3, pKBV) producing only TraV, TraK and TraB_(Strep4); C13 reconstruction of the ORC, C17 and C16 reconstructions of the CC
[2] = target: TraB with a C-terminal double twin-Strep tag (TraB_(Strep4)), VirB10-like subunit of the pED208-encoded T4SS (IncFV plasmid pED208 (carried in E. coli)); assay: cryo-EM structure; OMCC purified from E. coli MC4100(pED208-traB_(Strep4)) (WT) by StrepTrap and Superdex 200 in 50 mM Tris-HCl pH 8, 200 mM NaCl, 1 mM DTT, 1 mM EDTA, 0.06% DM-NPG, 0.1% digitonin; C1, C13 and C17 reconstructions
[3] = target: TraK, VirB9-like subunit of the pED208-encoded T4SS (IncFV plasmid pED208 (carried in E. coli)); assay: as above
[4] = target: TraV, VirB7-like lipoprotein subunit of the pED208-encoded T4SS (IncFV plasmid pED208 (carried in E. coli)); assay: as above

TraB with a C-terminal double twin-Strep tag (TraB_(Strep4)), VirB10-like subunit of the pED208-encoded T4SS (natural protein)
stoichiometry N [1]: 16 and 17 | stoichiometry N [2]: 17 copies

TraK, VirB9-like subunit of the pED208-encoded T4SS (natural protein)
stoichiometry N [3]: 26 copies

TraV, VirB7-like lipoprotein subunit of the pED208-encoded T4SS (natural protein)
stoichiometry N [4]: 26 copies
